Test results reported in article PMC4667285, “Octameric structure of Staphylococcus aureus enolase in complex with phosphoenolpyruvate” (Acta Crystallographica Section D: Biological Crystallography, 2015).

Legend:
[1] = tested on: O=C(O)[C@@H](CO)OP(=O)(O)O; assay: purified protein; details: octamer, room temperature, 20 mM IMD–HCl, 400 mM KCl, 1 mM magnesium acetate pH 7.0
[2] = molecular target: Staphylococcus aureus enolase, wild type (Staphylococcus aureus) (UniProt Q2G028); assay: crystal structure; non-ligand-bound Sa_enolase, 2.45 Å, space group P42(1)2, a homodimer in the asymmetric unit, octamer by fourfold crystallographic symmetry; 0.01 M cobalt(II) chloride, 0.1 M MES pH 6.5, 1.8 M ammonium sulfate, 16°C
[3] = molecular target: Staphylococcus aureus enolase, wild type (Staphylococcus aureus) (UniProt Q2G028); assay: crystal structure; PEP-bound Sa_enolase, 1.6 Å, space group I4, co-crystallised with 2-PG (1:10); 0.2 M ammonium acetate, 0.1 M Tris-HCl pH 8.5, 25% PEG 3350, 16°C
[4] = molecular target: Sa_enolase F139A mutant (Staphylococcus aureus) (UniProt Q2G028); assay: SEC
[5] = molecular target: T1, Sa_enolase (octamer) (Staphylococcus aureus, UniProt O69174); assay: isothermal titration calorimetry; assay type: binding
T1 construct: gene eno; C-terminal hexahistidine tag, pET-24a, E. coli BL21(DE3); residues 1-434 described; octamer fraction separated from dimer by size-exclusion chromatography

[6] = molecular target: Sa_enolase D355A mutant (Staphylococcus aureus) (UniProt Q2G028); assay: SEC
[7] = molecular target: Sa_enolase Y135A mutant (Staphylococcus aureus) (UniProt Q2G028); assay: SEC
[8] = molecular target: Sa_enolase G138A mutant (Staphylococcus aureus) (UniProt Q2G028); assay: SEC

Sa_enolase (octamer) (Staphylococcus aureus)
Km [1]: 0.365 ± 0.030 × 10^−3 M | Vmax [1]: 74.8 µM/min | kcat [1]: 83 s⁻¹ | kcat/Km [1]: 227000 M⁻¹ s⁻¹

Staphylococcus aureus enolase, wild type (from UniProt Q2G028) (enzyme)
stoichiometry N [2]: 8 | stoichiometry N [3]: 8

Sa_enolase F139A mutant (from UniProt Q2G028) (enzyme)
stoichiometry N [4]: 2

O=C(O)[C@@H](CO)OP(=O)(O)O [2-PG]
Kd [5]: 15 ± 2.6 µM

Sa_enolase D355A mutant (from UniProt Q2G028) (enzyme)
stoichiometry N [6]: 2

Sa_enolase Y135A mutant (from UniProt Q2G028) (enzyme)
stoichiometry N [7]: 2

Sa_enolase G138A mutant (from UniProt Q2G028) (enzyme)
stoichiometry N [8]: 2
